# In paper PMC10164551, “Structural basis of tRNAPro acceptor stem recognition by a bacterial trans-editing domain”:
# T1: ProXp-ala K50A (Caulobacter crescentus, UniProt Q9ABV9 1-168, K50A)
# T1 sequence: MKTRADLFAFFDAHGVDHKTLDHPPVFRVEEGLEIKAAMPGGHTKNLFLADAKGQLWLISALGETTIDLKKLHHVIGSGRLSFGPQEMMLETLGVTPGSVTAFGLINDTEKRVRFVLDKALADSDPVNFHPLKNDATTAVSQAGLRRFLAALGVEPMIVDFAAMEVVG
# Biological target: T1, ProXp-ala K50A
# Assay: AUC; 1 mM MgCl2; 9.6 μM protein reaches about 36% bound; EMSA: 81 nM duplex annealed in 50 mM sodium phosphate pH 7.5, 150 mM NaCl, 0-114 μM protein, 1 h room temp, 16% native gel in TBE; NMR: same phosphate buffer, 1
# Conditions: protein: recombinant; tags: N-terminal His6 removed by thrombin; leaves Gly-Ser-His; hairpin; 7 bp stem, 3' ACCA single-stranded
binder,measurement,value
CGGCGAGUUCGCUCGCCGACCA (structured_RNA) [microhelixPro],binding signal,~8 fold weaker than WT
